Measured values as given in the supplement of paper PMC11865577.

Columns and labels:
Experiment in all cases: pull-down binding Z-score (relative to library population); higher = stronger binding
Details in all cases: RNA library: Library-2
TO-N3 (biotin conjugate) = tested on: TO-N3 (biotin conjugate)
Summary of the method: (§1)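 A heat-folded, dye-end-labelled (Cy5 or Cy3) RNA library (1 μg, phosphate/NaCl/KCl buffer) was exposed for 60 min at 25 °C to streptavidin beads holding 100 pmol of biotin-conjugated small molecule. RNA retained on the beads was eluted in hot SDS and hybridised to a DNA barcode microarray for 20 h at 55.5 °C. Binding scores were Z-scores against the library mean and standard deviation, calculated after subtracting beads alone and taking trimmed means of replicate probes.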

[1] = tested on: TO-3-N3-2 (biotin conjugate)
Summary of the method: as §1

[2] = tested on: TO-N3-2 (biotin conjugate)
Summary of the method: as §1

[3] = tested on: TO-3-N3 (biotin conjugate)
Summary of the method: as §1

Sequence | pull-down binding Z-score (TO-N3 (biotin conjugate)) | pull-down binding Z-score [1] | pull-down binding Z-score [2] | pull-down binding Z-score [3]
UGUAAAUCACAUAAACCACCCAUUAGUUUUCCAUUGUGUGCUAAUGGACAAGUUUUUGGUUUAUA | -0.491 | 0.371 | -0.995 | -0.529
GCGCUACUGCAACGAUACCGAUACAAGCCUCACUCCCUUUCGGAUGGCUUAUUGUUGGCGUUGCACUUCUUGCUGUUUUUCAGAGCGC | -0.282 | 0.232 | 0.285 | -0.679
GAGCUGCCCUGUCGGUGAAGCUC [IAV_invivo_NA_6_Motif_6+IAV_invivo_NA_6_Motif_6] | 0.217 | -0.0787 | 0.384 | 0.171
GACCCUAAGACUAAAAAUGUUACAAAAGAAAAUGACUCUAAAGAGGGUUUUUUCACUUACAUUUGUGGGUU | -0.227 | 0.101 | -0.519 | -0.131
GCUUCUAGAAAGUGAACUCGUAAUCGGAGCUGUGAUCCUUCGUGGACAUCUUCGUAUUGCUGGACACCAUCUAGGACGC | 0.335 | 0.191 | 1.23 | -0.191
GUGGUGAGACACUUGGUGUCCUUGUCCCUCAUGUGGGCGAAAUACCAGUGGCUUACCGC | 0.798 | -0.0757 | 0.812 | 0.769
UAUUUCAUAACAGAUGCGCAAACAGGUUCAUCUAAGUGUGUGUGUUCUGUUAUUGAUUUA | -1.16 | -0.188 | -0.209 | -1.06
GCUUCCACUGAGAAGU [DMSMaPseq_invitro_SARS-CoV-2_Motif_384] | -1.1 | -0.576 | -1.03 | -0.836
UCUUCAGGUUGGACAGCUGGUGCUGCAGCUUAUUAUGUGGGUUAUCUUCAACCUAGGA [DMSMaPseq_invitro_SARS-CoV-2_Multi_66_ComplexLevel_1] | 0.0485 | -0.178 | 0.0317 | -0.145
GCGCUGCCAGAAACUGGCUUAGCGC [bulge-UU] | 0.691 | -0.0172 | 0.338 | 0.63
GUUGUCGCUUCCAAGAAAAGGACGAAGAUGACAAU [SHAPE_invitro_SARS-CoV-2_Motif_248] | 0.141 | 0.224 | 0.292 | 0.276
GGUUCACUAUAUGUUAAACCAGGUGGAACC | 0.506 | 0.221 | -0.369 | 0.612
GCAGACGGGCGAUUUUGUUAAAGCCACUUGC | 0.889 | 0.604 | 1.57 | 0.648
ACACGGUGUUUAAACCGUGU | 0.0341 | -0.00656 | -1.15 | 0.59
GCAAGCUUCGAUAAUUUUAAGUUUGU [SHAPE_invitro_SARS-CoV-2_Motif_120] | 0.816 | 0.402 | -0.0709 | 1.04
GGUGAAGGACGGGUCCAGUAGUUCGCUACUGUUGAGUAGAGUGUGAGCUCC [BabySpinach] | 2.08 | 0.648 | 2.02 | 1.09
UCUGCACUGUUAGCGGGUACAAUCACUUCUGGUUGGACCUUUGGUGCAGG | -0.815 | -0.38 | -1.07 | -0.66

Sequence | pull-down binding Z-score (TO-N3 (biotin conjugate)) | pull-down binding Z-score [1] | pull-down binding Z-score [2] | pull-down binding Z-score [3]
GCGCUGCCAGAAACUGGCAGCGC [full-UA] | -0.599 | -0.274 | -0.943 | -0.337
AACUACUAUUCAAACAAUUGUUGAGGUUCAACCUCAAUUAGAGAUGGAACUUACACCAGUUGUUCAGACUAUUGAAGUGAAUAGUUUUAGUGGUU | -0.383 | -0.609 | -0.981 | -0.295
GGUAAUUAUACAGUUUCCUGUUUACC [DMSMaPseq_invitro_SARS-CoV-2_Motif_504] | -1.05 | -0.713 | -0.867 | -0.536
UGUAUGAAAAUGCCUUUUUACCUUUUGCUAUGGGUAUUAUUGCUAUGUCUGCUUUUGCAAUGAUGUUUGUCAAACAUAAGCAUGCA | -0.547 | 0.0997 | -0.447 | -0.713
UUAAUGCCUGUCUGUGUGGAAACUAAAGCCAUAGUUUCAACUAUACAGCGUAAAUAUAAGGGUAUUAA [DMSMaPseq_invitro_SARS-CoV-2_Motif_83] | -0.439 | 0.502 | -0.463 | -0.287
GUGGUUAUACCUACUAAAAAGGCUGGUGGCACUACUGAAAUGCUAGCGAAAGCUUUGAGAAAAGUGCCAACAGACAAUUAUAUAACCAC | -0.353 | 0.156 | 0.179 | -0.608
AACCAGUUAACUGGUU [SHAPE_invivo_SARS-CoV-2_Motif_126] | 0.00533 | -0.406 | -1.24 | 0.328
CUUGAUGAUUUUGUUGAAAUAAUAAAAUCCCAAG | -0.636 | -0.266 | -0.743 | -0.466
CAUAGAUUAUGACUGUG [SHAPE_invivo_SARS-CoV-2_Motif_206] | -0.396 | -0.373 | -0.826 | -0.165
GCUAGAAAAUCAGC [SHAPE_invivo_SARS-CoV-2_Motif_531] | -0.0963 | 0.246 | -0.164 | -0.186
GUUAAAAUGUUUGAUGCUUACGUUAAUACGUUUUCAUCAACUUUUAAC | -1.54 | -0.247 | -1.35 | -1.02
GCGCUGCCAGAAACUGGCAAAAGCGC [bulge-AAA] | -0.936 | -0.295 | -0.689 | -0.765
GUUCUUGUAUGUGAGAAC [IAV_invivo_PA_3_Motif_23+IAV_invivo_PA_3_Motif_23] | -0.949 | -0.614 | -1.09 | -0.598
CUGACUUAACAAAGCCUUACAUUAAGUGGGAUUUGUUAAAAUAUGACUUCACGGAAGAGAGGUUAAAACUCUUUGACCGUUAUUUUAAAUAUUGG | -0.517 | -0.143 | -0.193 | -0.707
GGCGUUGUCCUGCUGAAAUUGUUGACACUGUGAGUGCUUUGGUUUAUGAUAAUAAGCUUAAAGCACAUAAAGACAAAUCAGCUCAAUGCU | -0.324 | -0.302 | 0.182 | -0.58
CAAUACAUAAGAAAGCUACAUGAUGAGUUAACAGGACACAUGUUAGACAUGUAUUCUGUUAUGCUUACUAAUGAUAACACUUCAAGGUAUUG | -0.411 | 0.625 | -0.157 | -0.424
